Here are results for seven molecules from patent publication US20240075137A1 (COMPUGEN, published 2024).

Substitutions are numbered along the chain they refer to. Names and notes keep the numbering of the source.

Usually Kd stands for the concentration at which binding is half-saturated. What is called IC50 is the concentration needed to halve the response being measured. A higher IC50 goes with a need for much substance.

T1: human PVR-h1Fc (Sino Biological #10109-H20H) (human, UniProt P15151 21-343)
T1 construct: bought; also called hPVR-hFc; Sino PVR-Fc
T1 sequence (looked up): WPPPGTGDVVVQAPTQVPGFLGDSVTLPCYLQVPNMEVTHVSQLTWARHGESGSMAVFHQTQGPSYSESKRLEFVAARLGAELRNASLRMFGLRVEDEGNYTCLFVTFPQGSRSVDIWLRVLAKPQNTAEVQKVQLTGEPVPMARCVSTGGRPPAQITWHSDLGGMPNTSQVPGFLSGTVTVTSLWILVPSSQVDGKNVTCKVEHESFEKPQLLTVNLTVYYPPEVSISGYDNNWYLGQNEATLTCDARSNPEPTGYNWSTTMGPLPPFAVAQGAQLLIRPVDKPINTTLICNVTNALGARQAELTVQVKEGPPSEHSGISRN

T2: human TIGIT ECD with C-terminal polyhistidine tag (human, UniProt Q495A1 22-141)
T2 construct: in-house or Sino Biological; also called hTIGIT-HIS; human TIGIT-HIS
T2 sequence: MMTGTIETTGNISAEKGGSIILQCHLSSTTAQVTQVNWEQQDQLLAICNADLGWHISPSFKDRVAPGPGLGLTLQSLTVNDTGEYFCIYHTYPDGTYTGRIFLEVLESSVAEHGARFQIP

T3: Mouse TIGIT-His (mouse, UniProt P86176)
T3 construct: also called mouse TIGIT monomer (prepared in-house)
T3 sequence (soluble monomer with His tag, looked up): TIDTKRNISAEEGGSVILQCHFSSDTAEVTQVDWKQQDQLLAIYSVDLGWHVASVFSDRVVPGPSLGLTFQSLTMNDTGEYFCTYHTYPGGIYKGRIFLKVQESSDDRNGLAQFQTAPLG

T4: mouse TIGIT on cells (mouse, UniProt P86176 29-249)
T4 construct: whole, on cells; also called mouse TIGIT over-expressing HEK cells; mouse Tregs
T4 sequence (looked up): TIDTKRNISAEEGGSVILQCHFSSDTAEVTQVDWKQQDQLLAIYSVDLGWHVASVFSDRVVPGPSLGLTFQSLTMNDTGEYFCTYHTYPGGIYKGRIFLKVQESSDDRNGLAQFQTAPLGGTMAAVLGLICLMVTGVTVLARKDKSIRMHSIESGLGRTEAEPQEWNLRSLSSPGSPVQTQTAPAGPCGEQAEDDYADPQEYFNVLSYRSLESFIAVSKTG

B1: human TIGIT on cells (receptor)
chain: T2 sequence
notes: also called Expi293 human TIGIT over-expressing cells
B2: CPA.9.059 hIgG4 (antibody, V domains shown)
VH: EVQLVETGGGLIQPGGSLRLSCAASGFTVSSNYMSWVRQAPGKGLEWVSVIYSGGSTYYADSVKGRFTISRDNSKNTLYLQMNSLRAEDTAVYYCARGARYSYGQYPYWGQGTLVTVSS
VL: DIQLTQSPSFLSASVGDRVTITCRASHDISSLFSWYQQKPGKAPKLLIYAASTLQTGVPSRFSGSASGTEFTLTISSLQPEDFATYYCLQLDSFPTWTFGQGTKVEIKR
notes: phage-derived anti-TIGIT, human IgG4; also called CPA.9.059-H4
B3: CPA.9.049 hIgG4 (antibody, V domains shown)
VH: EVQLVETGGGLIQPGRSLRLSCAASGFTFSSYAMHWVRQAPGKGLEWVAVISYDGSNKYYADSVKGRFTISRDNSKNTLYLQMNSLRAEDTAVYYCARDPLPLHYYGMDVWGQGTTVTVSS
VL: QSALTQPRSASGNPGQRVTISCSGSSSNMGRRPVNWYQQIPGTAPKLLIYSQNQRPSGVPDRFSGSQSGTSASLTISGLQSEDEAEYFCAVWDDSLFSLLLGGGTQLAVLG
notes: phage-derived anti-TIGIT, human IgG4; also called CPA.9.049-H4
B4: CPA.9.083 reformatted as mouse IgG1 (antibody, V domains shown)
VH: B3 VH with S56T, N57P, K58V
VL: B3 VL with D94G, S95D, L96R, F97R, L100Q
notes: also called CPA.9.083 mIgG1
B5: CPA.9.086.H4(S241P) (antibody, human IgG4 S228P, lambda, V domains shown)
VH: B3 VH with D54A, S56E, N57V
VL: B3 VL with S95I, L96G, F97R, S98V, L100Q
B6: CPA.9.086 reformatted as mouse IgG1 (antibody, V domains shown)
VH: B3 VH with D54A, S56E, N57V
VL: B3 VL with S95I, L96G, F97R, S98V, L100Q
notes: also called CPA.9.086 mIgG1
B7: CHA.9.543 (antibody, V domains shown)
VH: EVQLQQSGPELVKPGASMKISCKASGYSFTGYTMNWVRQSHGKNLEWLGLIFPYNGGTSYNQNFKGKATLTVDTSSSTAYMELLSLTSVDSAVYYCARGVRFALDYWGQGTSVSVSS
VL: DVVMTQTPLSLPVSFGDQVSISCRSSQSLANSYGNTYLSWYLHKPGQSPQLLIYEISNRFSGVPDRFSGSGSGTDFTLNISTIKPEDLGMYYCLQGTHQPWTFGGGTKLEIKR

The target in assay [1] is T1, human PVR-h1Fc (Sino Biological …). Put plainly: FACS titration on Expi293 human TIGIT over-expressing cells (gMFI OE:Parental); ± 95% CI; 'Fit: Fair'.
Description: The 12th well of each titration contained buffer only to serve as background. Each cell type was incubated with mAb for 60 minutes at 4° C. while. […] A FACS Canto II HTS instrument then recorded the Geometric Mean Fluorescence Intensity (gMFI) of 5000-10,000 events for each well.
In assay [2] the target is B1. Put plainly: FACS KD on Expi293 human TIGIT over-expressing cells; ± 95% CI of the fit.
Assay [3] deals with T2, human TIGIT ECD with C-terminal …. Put plainly: SPR (ProteOn), mAb captured, human TIGIT injected.
Description: (§1) All experiments were performed using a ProteOn XPR 36 instrument at 22° C. First, high density capture surfaces were prepared with goat anti human Fc polyclonal antibody (Thermo #H10500) and rabbit anti mouse antibodies (GE Healthcare #BR100838), respectively, immobilized over all vertical capture lanes and horizontal interspots on separate GLC chips using standard amine coupling. Typical immobilization levels for the anti-human capture pAb and the anti-mouse capture antibody for each GLC chip were around 5000 RU. Human TIGIT was obtained from Sino Biologicals while mouse TIGIT monomer and cyno TIGIT monomer were prepared in-house.
(§2) Each mAb was diluted to ˜0.5 μg/mL in running buffer which was 1×PBST with filtered BSA added to a final concentration of 100 μg/mL. For each “single-shot kinetics” cycle on the ProteOn instrument, a different mAb was captured over one of the six unique vertical capture lanes for approximately 1.5-2.5 minutes. After switching the buffer flow of the ProteOn to the horizontal direction, capture surfaces were stabilized for approximately 15-20 minutes. […] An identical buffer injection preceded each series of injected antigen for double-referencing. […] The sensorgrams of TIGIT antigen injected over captured mAbs were processed using a ProteOn version of Scrubber and were fit to a 1:1 kinetic binding model including a term for mass transport.
The target in assay [4] is T5, Cyno TIGIT-His.
T5 construct: also called cyno TIGIT monomer (prepared in-house); C-terminal HIS-tagged cyno TIGIT ECD recombinant protein
Put plainly: SPR (ProteOn), mAb captured, cyno TIGIT monomer injected.
Description: as §1, §2

Assay [5] deals with B1. As to the kind of experiment: FACS blocking: Expi293 human TIGIT cells pre-incubated with mAb, then human PVR-m2aFc; lower gMFI = more blocking.
For assay [6], the target named is T6, cyno TIGIT on cells (cynomolgus macaque).
T6 construct: whole, on cells; also called Expi293 cyno TIGIT over-expressing cells
As to the kind of experiment: FACS KD on Expi293 cyno TIGIT over-expressing cells; ± 95% CI of the fit.

Assay [7] deals with T3, Mouse TIGIT-His. Put plainly: SPR (ProteOn), mAb captured, mouse TIGIT monomer injected.
Description: as §1, §2
The next assay has as its target T4, mouse TIGIT on cells. As to the kind of experiment: FACS titration of AF647-labelled mAb on mouse CD4+CD25+Foxp3+ Tregs from Renca tumors; no unit beside the value, nM taken from the axis (binding site).
Assay [8] concerns the target T6, cyno TIGIT on cells. Put plainly: FACS titration of AF647-labelled mAb on cyno effector memory CD8+ T cells, Cyno Donor 1; isotype gMFI subtracted.
The target of assay [9] is B1. As to the kind of experiment: FACS blocking of human PVR-m2aFc binding to human TIGIT OE Expi293 cells; binding site concentration; n=1.
Assay [10] concerns the target T2, human TIGIT ECD with C-terminal …. Put plainly: KinExA equilibrium, His-tagged human TIGIT, n = 2. In general terms: In KinExA the mixture passes briefly over coated beads that capture the unbound partner.
Description: (§3) KinExA equilibrium experiments were performed using a KinExA 3200 instrument (Sapidyne Instruments, Boise, ID, USA) at 22° C. Recombinant His-tagged human TIGIT was obtained from Sino Biologicals (Beijing, China) and reconstituted into 1×PBS. All antigen and antibody samples for KinExA analyses were prepared in degassed PBST buffer (PBS with 0.05% tween 20) with 100 ug/mL filtered BSA and 0.02% sodium azide. […] For each KinExA experiment, ˜20 lag of human TIGIT was diluted into 1 mL of 50 mM sodium carbonate, pH 9.2 which was added directly to 50 mg of azlactone beads (Ultralink Support, Thermo Scientific, Rockford, IL, USA) and rocked overnight at 4° C. After rocking, the beads were rinsed once with 1 M Tris buffer, pH 8.5, containing 10 mg/mL BSA and rocked for one hour at room temperature in the same buffer. Coupled beads were added to the bead reservoir in the KinExA instrument and diluted to ˜30 mL with 1×HBS-N (0.01 M Hepes, 0.15M NaCl, GE Healthcare) containing 0.02% sodium azide which was also the running buffer for the KinExA instrument. All antigen-coupled beads were used immediately after preparation.
(§4) The volume flowed through the bead pack for each equilibrated sample for all experiments ranged from 4 mL to 11 mL at a flow rate of 0.25 mL/min.
The target of assay [11] is T5, Cyno TIGIT-His. As to the kind of experiment: SPR (ProteOn), Cyno TIGIT-His.
Assay [12] concerns the target B1. Put plainly: FACS titration of AF647-labelled mAb on human effector memory CD8+ T cells, Donor 334.
Assay [13] has as its target T2, human TIGIT ECD with C-terminal …. Put plainly: KinExA equilibrium, His-tagged human TIGIT, n = 1.
Description: as §3, §4
The target in assay [14] is B1. As to the kind of experiment: FACS blocking of human PVR-m2aFc binding to human TIGIT OE Expi293 cells; binding site concentration; n=2.
Assay [15] deals with T2, human TIGIT ECD with C-terminal …. Put plainly: SPR (ProteOn), Human TIGIT-His.
Assay [16] has as its target B1. As to the kind of experiment: FACS titration on human TIGIT OE Expi293 cells, binding site concentration; ± 95% CI; 'Fit: Good/Excellent'.
Description: AF647-labeled goat anti-human F(ab′) (Jackson Immunoresearch) was added to the cells to detect binding of anti-TIGIT antibodies.
The target of assay [17] is T3, Mouse TIGIT-His. As to the kind of experiment: SPR (ProteOn), Mouse TIGIT-His.
The target of assay [18] is T6, cyno TIGIT on cells. As to the kind of experiment: FACS titration on cyno TIGIT OE Expi293 cells, binding site concentration; ± 95% CI; 'Fit: Good'.
Description: AF647-labeled goat anti-human F(ab′) (Jackson Immunoresearch) was added to the cells to detect binding of anti-TIGIT antibodies. The gMFI of the anti-TIGIT antibodies bound to the cyno TIGIT over-expressing Expi293 cells (black line), and the parental Expi293 cells (grey line) are shown.
Assay [19] deals with T6, cyno TIGIT on cells. As to the kind of experiment: FACS titration of AF647-labelled mAb on cyno effector memory CD8+ T cells, Cyno Donor 3; isotype gMFI subtracted.
In assay [20] the target is B1. Put plainly: FACS titration of AF647-labelled mAb on human effector memory CD8+ T cells, Donor 321.
The target of assay [21] is B1. As to the kind of experiment: FACS titration of AF647-labelled mAb on human effector memory CD8+ T cells, Donor 322.
Assay [22] deals with T5, Cyno TIGIT-His. Put plainly: SPR (ProteOn), mAb captured, cyno TIGIT monomer injected; kd of this row held constant.
Description: as §1, §2

T5 sequence (ECD with C-terminal His tag, as listed by the source): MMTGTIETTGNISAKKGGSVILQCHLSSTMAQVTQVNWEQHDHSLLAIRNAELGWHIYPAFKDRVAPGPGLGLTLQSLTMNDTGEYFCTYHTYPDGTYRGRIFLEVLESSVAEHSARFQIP
Excerpt for mouse TIGIT on cells: Anti-TIGIT antibodies were directly conjugated to AF647 for mouse Treg binding.

For B1, the Kd in [1] was 10 nM.
For B2, the affinity with human TIGIT on cells [2], expressed as Kd, was 0.29 nM. In assay [3], this molecule registered a Kd of 0.0213 nM. For the same molecule, the binding result with Cyno TIGIT-His [4] is reported as “binds”. For the same molecule, in the assay with human TIGIT on cells [5], the “gMFI of bound PVR-m2aFc at 266 pM mAb” value was determined as 509, the “gMFI of bound PVR-m2aFc at 1.3 nM mAb” value came out at 262 and the “gMFI of bound PVR-m2aFc at 6.7 nM mAb” value was 209.
B3: the dissociation constant Kd stood at 0.26 nM in the assay with human TIGIT on cells [2], 0.0945 nM in [3], 1.88 nM with cyno TIGIT on cells [6] and 82.7 nM with Mouse TIGIT-His [7]. The “gMFI of bound PVR-m2aFc at 266 pM mAb” value with human TIGIT on cells [5] is 511. For the same molecule, the “gMFI of bound PVR-m2aFc at 1.3 nM mAb” value with human TIGIT on cells [5] was 276. Also, the “gMFI of bound PVR-m2aFc at 6.7 nM mAb” value with human TIGIT on cells [5] amounted to 215.
As for B4, the dissociation constant (Kd) with mouse TIGIT on cells stood at 0.4 nM.
As for B5, the Kd with cyno TIGIT on cells [8] is 0.43 nM; in assay [10], 0.000665 nM; with human TIGIT on cells [12] it was 0.13 nM; in assay [13], 0.000553 nM; in assay [15], 0.0023 nM; in the assay with human TIGIT on cells [16], 0.35 nM. For the same molecule, the Kd was found to be 0.663 nM with Mouse TIGIT-His [17]; 0.3 nM in the assay with cyno TIGIT on cells [18]; 0.98 nM with cyno TIGIT on cells [19]; 0.09 nM with human TIGIT on cells [20]; 0.11 nM with human TIGIT on cells [21]. The IC50 with human TIGIT on cells [9] was found to be 0.36 nM; in the assay with human TIGIT on cells [14], 0.18 nM. For the same molecule, in the assay with Cyno TIGIT-His [11], the binding result is reported as “binds”.
On to B6, for which binding with mouse TIGIT on cells was characterised by a dissociation constant (Kd) of 0.68 nM.
As to B7, the dissociation constant (Kd) with human TIGIT on cells [2] is 10.2 nM; in assay [3], 0.0231 nM; with Cyno TIGIT-His [22], 0.00155 nM; in the assay with cyno TIGIT on cells [6], 17.2 nM.
